Molecular target: VcSiaP R125A Q54R1 L173R1 with N-terminal HisTEV tag (Vibrio cholerae) (UniProt Q9KR64)
Experiment: crystal structure

VcSiaP R125A Q54R1 L173R1 with N-terminal HisTEV tag (from UniProt Q9KR64 23-321) (natural protein)
stoichiometry N: 2

Source: article doi:10.1101/2020.12.02.404004
